Assay results from patent publication US20050130265.

Tests used:
Ikaros = Ikaros (UniProt Q03267); assay: cell_activity; conditions: NIH3T3 reporter
Helios (Mus musculus) = Helios (Mus musculus) (UniProt P81183); assay: cell_activity; conditions: NIH3T3 reporter; requires Ikaros sites
Sequence of Helios (Mus musculus) (P81183 other isoform, or with tags, fused parts or gaps): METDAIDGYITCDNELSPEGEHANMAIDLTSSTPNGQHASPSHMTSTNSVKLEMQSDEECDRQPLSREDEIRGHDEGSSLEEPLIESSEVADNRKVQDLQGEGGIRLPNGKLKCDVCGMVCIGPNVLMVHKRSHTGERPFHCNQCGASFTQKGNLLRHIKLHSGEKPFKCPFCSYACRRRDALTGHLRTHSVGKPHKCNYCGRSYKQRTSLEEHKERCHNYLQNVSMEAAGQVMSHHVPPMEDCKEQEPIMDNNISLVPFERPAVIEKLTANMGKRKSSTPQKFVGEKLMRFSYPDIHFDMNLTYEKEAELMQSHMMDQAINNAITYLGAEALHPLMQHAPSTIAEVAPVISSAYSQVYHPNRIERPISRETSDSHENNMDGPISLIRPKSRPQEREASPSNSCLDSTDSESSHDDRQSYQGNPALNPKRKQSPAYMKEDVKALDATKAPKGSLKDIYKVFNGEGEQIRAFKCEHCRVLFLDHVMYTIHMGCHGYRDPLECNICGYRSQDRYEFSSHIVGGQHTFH

Sequence of Ikaros (Q03267 other isoform, or with tags, fused parts or gaps): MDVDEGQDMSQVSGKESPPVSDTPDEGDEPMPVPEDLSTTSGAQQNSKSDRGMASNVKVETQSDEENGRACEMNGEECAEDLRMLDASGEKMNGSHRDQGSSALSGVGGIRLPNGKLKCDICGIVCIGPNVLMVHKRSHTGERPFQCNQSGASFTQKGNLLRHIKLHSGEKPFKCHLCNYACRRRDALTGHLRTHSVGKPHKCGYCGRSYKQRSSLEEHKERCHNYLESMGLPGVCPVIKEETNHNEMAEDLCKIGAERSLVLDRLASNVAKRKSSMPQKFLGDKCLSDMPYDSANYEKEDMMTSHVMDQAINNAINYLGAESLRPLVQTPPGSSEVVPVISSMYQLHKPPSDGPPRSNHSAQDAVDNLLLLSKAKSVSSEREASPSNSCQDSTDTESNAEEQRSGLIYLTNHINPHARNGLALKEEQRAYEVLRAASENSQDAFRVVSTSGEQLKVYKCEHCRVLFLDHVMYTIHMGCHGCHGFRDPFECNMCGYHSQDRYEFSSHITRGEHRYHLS

4x IkBS2 reporter
activity (fold activation) (Ikaros): 7.8 | activity (fold activation) (Helios (Mus musculus)): 5
